Earlier results as cited in publication PMC9598996.

Columns and labels:
Cys95 = Cys95 (UniProt position 595, LTQIGCTLNFP); details: native (folded) enzyme, cysteines reduced
Cys67 = Cys67 (UniProt position 567, ILIEICGHKAI); details: native (folded) enzyme, cysteines reduced

## HIV-1 protease (retropepsin) (Human immunodeficiency virus type 1)
Cys95
  pKa: about 6
Cys67
  pKa: about 6
